Data reported in patent US8614103B2, “Compositions and methods for treating sphingosine-1-phosphate (S1P) related ocular diseases and conditions” (Lpath, Inc., priority 2006, dated 2013).

Key:
[1] = Competitive ELISA for specificity / cross-reactivity against bioactive lipids; assay type: binding; settings: for cross-reactivity to sphingosylphosphorylcholine (SPC): competitor SPC
Protocol: Screening of serum and cell supernatant for S1P-specific antibodies was by direct ELISA using a thiolated SIP analog as the antigen. A standard ELISA was performed, as described below, except that 50 ul of sample (serum or cell supernatant) was diluted with an equal volume of PBS/0.1% Tween-20 (PBST) during the primary incubation. ELISAs were performed in 96-well high binding ELISA plates (Costar) coated with 0.1 μg of chemically-synthesized thiolated-S1P conjugated to BSA in binding buffer (33.6 mM Na2CO3, 100 mM NaHCO3; pH 9.5). The thiolated-S1P-BSA was incubated at 37° C. for 1 hr. at 4° C. overnight in the ELISA plate wells. The plates were then washed four times with PBS (137 mM NaCl, 2.68 mM KCl, 10.14 mM Na2HPO4, 1.76 mM KH2PO4; pH 7.4) and blocked with PBST for 1 hr. at room temperature. For the primary incubation step, 75 uL of the sample (containing the S1P to be measured), was incubated with 25 uL of 0.1 ug/mL anti-S1P mAb diluted in PBST and added to a well of the ELISA plate. Each sample was performed in triplicate wells. Following a 1 hr. incubation at room temperature, the ELISA plates were washed four times with PBS and incubated with 100 ul per well of 0.1 ug/mL HRP goat anti-mouse secondary (Jackson Immunoresearch) for 1 hr. at room temperature. Plates were then washed four times with PBS and exposed to tetramethylbenzidine (Sigma) for 1-10 minutes. The detection reaction was stopped by the addition of an equal volume of 1M H2SO4. Optical density of the samples was determined by measurement at 450 nm using an EL-X-800 ELISA plate reader (Bio-Tech).
For cross reactivity, a competitive ELISA was performed as described above, except for the following alterations. The primary incubation consisted of the competitor (S1P, SPH, LPA, etc.) and a biotin-conjugated anti-S1P mAb. Biotinylation of the purified monoclonal antibody was performed using the EZ-Link Sulfo-NHS-Biotinylation kit (Pierce). Biotin incorporation was determined as per kit protocol and ranged from 7 to 11 biotin molecules per antibody. The competitor was prepared as follows: lipid stocks were sonicated and dried under argon before reconstitution in DPBS/BSA [1 mg/ml fatty acid free BSA (Calbiochem) in DPBS (Invitrogen 14040-133)]. Purified anti-S1P mAb was diluted as necessary in PBS/0.5% Triton X-100. Competitor and antibody solutions were mixed together so to generate 3 parts competitor to 1 part antibody. A HRP-conjugated streptavidin secondary antibody (Jackson Immunoresearch) was used to generate signal.
The humanized variants were tested for specificity in a competitive ELISA assay (FIG. 1) against S1P and several other biolipids. This assay has the added benefit to allow for epitope mapping.

CNV lesions = assay: Murine laser-induced CNV model (Example 4); assay type: in vivo, mouse; settings: 0.5 μg
Protocol: Female C57BL6/J mice were subjected to laser-induced rupture of Bruch's membrane and administered either 0.5 μg of Sphingomab or an isotype-matched non-specific (NS) antibody diluted in 2 μl of physiological saline. Mice were sacrificed 14 and 28 days after laser rupture.
To induce CNV lesions, the pupils were dilated with ophthalmic tropicamide (0.5%) and phenylephrine (2.5%). A coverslip was placed on the eye. An Oculight GL 532 nm (Iridex Corporation, Mountain View, Calif.) coupled to a slit lamp set to deliver a 100 msec pulse at 150 mW with a 50 μm spot size was used to rupture Bruch's membrane in three quadrants of the right eye located approximately 50 μm from the optic disc at relative 9, 12 and 3 o'clock positions. The left eye served as an uninjured control in all cases. Any lesion not associated with a vapor bubble or lesions that became confluent were excluded from analysis. […]
To assess collagen deposition, the sclera-choroid-RPE complex was stained with Masson's Trichrome. […] Approximately 30 sections per lesion were evaluated. Quantitation of the volume of collagen deposition was calculated in the same manner as described for CNV lesion volume.
Captured digital images were evaluated morphometrically using ImageJ software (Research Services Branch, National Institutes of Health, Bethesda, Md.).

B1: LT1002: murine monoclonal antibody to S1P, IgG1 kappa, hybridoma clone 306D326.26 (antibody, listed as Mus sp., V domains shown)
VH: QAHLQQSDAELVKPGASVKISCKVSGFIFIDHTIHWMKQRPEQGLEWIGCISPRHDITKYNEMFRGKATLTADKSSTTAYIQVNSLTFEDSAVYFCARGGFYGSTIWFDFWGQGTTLTVS
VL: ETTVTQSPASLSMAIGEKVTIRCITTTDIDDDMNWFQQKPGEPPNLLISEGNILRPGVPSRFSSSGYGTDFLFTIENMLSEDVADYYCLQSDNLPFTFGSGTKLEIK
Specificity (ELISA) ([1]; Table 7): High
recognition of ceramide-1-phosphate (C1P) ([1]; competitor C1P, listed as anti-S1P mAb): no antibody binding was observed
cross-reactivity to dihydrosphingosine-1-phosphate (DH-S1P) ([1]; competitor DH-S1P): did cross react
cross-reactivity to lysophosphatidic acid (LPA) ([1]; competitor LPA, listed as anti-S1P mAb): exhibited no binding
cross-reactivity to sphingosylphosphorylcholine (SPC) ([1]; listed as SPHINGOMAB): to a lesser extent
cross-reactivity to sphingosylphosphorylcholine (SPC) ([1]; listed as anti-S1P mAb): binding was somewhat reduced
choroidal neovascularization (CNV lesions; 14 and 28 days after laser-induced rupture of Bruch's membrane): dramatically attenuates
fibrosis associated with CNV lesion formation (CNV lesions; 28 days after laser rupture, Masson's Trichrome): significantly reduces
